In patent US20250092160A1:
“And” between values parts separate entries of the source, which are not always exact repeats. Equal values may be shown once.

What was measured:
[1] = molecular target: SARS-CoV-2 N439K variant (pseudovirus RVP-703) (SARS-CoV-2) (UniProt P0DTC2); assay: cell-based or functional assay
[2] = molecular target: SARS-CoV-2 South African Δ3 B.1.351 variant (pseudovirus RVP-724) (SARS-CoV-2) (UniProt P0DTC2); assay: cell-based or functional assay

**Q.** REGN10987 (antibody) was tested. Which EC50 (pM) Neutralization, N439K [1] did it give?
**A.** The EC50 (pM) Neutralization, N439K was 2260 pM and 2220 pM.

**Q.** And the pseudovirus neutralization, potency against REGN10933 [1]?
**A.** Its pseudovirus neutralization, potency against REGN10933 is 1000 fold.

**Q.** What about the EC50 (pM) Neutralization, South Africa B.1.351 [2] of the same substance?
**A.** Its EC50 (pM) Neutralization, South Africa B.1.351 is 2.48 pM and 2.37 pM.
